Results published in IntAct's records for PubMed 26258305.

B1: Protein TIFY 7 (Arabidopsis thaliana (Mouse-ear cress)), Q8W4J8 (parent)
chain: MERDFLGLSDKQYLSNNVKHEVNDDAVEERGLSTKAAREWGKSKVFATSSFMPSSDFQEAKAFPGAYQWGSVSAANVFRRCQFGGAFQNATPLLLGGSVPLPTHPSLVPRVASSGSSPQLTIFYGGTISVFNDISPDKAQAIMLCAGNGLKGETGDSKPVREAERMYGKQIHNTAATSSSSATHTDNFSRCRDTPVAATNAMSMIESFNAAPRNMIPSVPQARKASLARFLEKRKERLMSAMPYKKMLLDLSTGESSGMNYSSTSPT
partner: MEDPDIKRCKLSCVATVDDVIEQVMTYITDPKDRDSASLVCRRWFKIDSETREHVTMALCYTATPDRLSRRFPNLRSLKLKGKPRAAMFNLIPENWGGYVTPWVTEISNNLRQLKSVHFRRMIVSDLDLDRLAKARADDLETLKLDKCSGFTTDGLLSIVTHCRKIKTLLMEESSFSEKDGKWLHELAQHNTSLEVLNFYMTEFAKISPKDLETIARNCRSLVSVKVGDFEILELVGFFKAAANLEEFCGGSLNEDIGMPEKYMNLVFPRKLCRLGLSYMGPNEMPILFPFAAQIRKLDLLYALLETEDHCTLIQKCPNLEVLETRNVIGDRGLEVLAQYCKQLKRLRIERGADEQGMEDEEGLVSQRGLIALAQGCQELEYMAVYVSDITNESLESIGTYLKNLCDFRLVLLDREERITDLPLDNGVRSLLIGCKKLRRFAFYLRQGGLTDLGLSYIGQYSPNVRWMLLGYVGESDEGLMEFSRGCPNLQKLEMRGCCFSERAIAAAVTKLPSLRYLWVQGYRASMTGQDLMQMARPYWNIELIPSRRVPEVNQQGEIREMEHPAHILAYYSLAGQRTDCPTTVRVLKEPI
B2: Protein TIFY 7 (Arabidopsis thaliana (Mouse-ear cress)), Q8W4J8 (parent)
chain: B1 chain

Legend:
coi1_arath COI1, O04197 = variants of: B1; details: with coi1_arath COI1, O04197
myc3_arath MYC3, Q9FIP9 = variants of: B2; details: with myc3_arath MYC3, Q9FIP9
myc2_arath MYC2, Q39204 = variants of: B2; details: with myc2_arath MYC2, Q39204
myc4_arath MYC4, O49687 = variants of: B2; details: with myc4_arath MYC4, O49687
myc4_arath MYC4, O49687, sequence (O49687 whole entry): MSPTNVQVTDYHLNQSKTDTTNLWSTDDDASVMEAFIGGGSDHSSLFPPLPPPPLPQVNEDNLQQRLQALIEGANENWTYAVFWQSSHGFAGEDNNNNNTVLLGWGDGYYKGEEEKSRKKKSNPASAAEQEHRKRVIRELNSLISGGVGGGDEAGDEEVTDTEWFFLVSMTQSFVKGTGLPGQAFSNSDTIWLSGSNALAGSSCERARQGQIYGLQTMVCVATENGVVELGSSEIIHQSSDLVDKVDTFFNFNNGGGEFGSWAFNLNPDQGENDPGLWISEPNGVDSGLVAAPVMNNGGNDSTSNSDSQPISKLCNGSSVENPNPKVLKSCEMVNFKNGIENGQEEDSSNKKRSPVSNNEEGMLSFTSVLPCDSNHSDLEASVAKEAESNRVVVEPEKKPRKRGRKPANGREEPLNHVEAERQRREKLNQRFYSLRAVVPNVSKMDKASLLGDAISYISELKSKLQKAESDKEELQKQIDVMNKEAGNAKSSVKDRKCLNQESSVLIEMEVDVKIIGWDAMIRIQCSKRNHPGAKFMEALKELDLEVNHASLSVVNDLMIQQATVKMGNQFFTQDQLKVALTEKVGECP

myc3_arath MYC3, Q9FIP9, sequence (Q9FIP9 whole entry): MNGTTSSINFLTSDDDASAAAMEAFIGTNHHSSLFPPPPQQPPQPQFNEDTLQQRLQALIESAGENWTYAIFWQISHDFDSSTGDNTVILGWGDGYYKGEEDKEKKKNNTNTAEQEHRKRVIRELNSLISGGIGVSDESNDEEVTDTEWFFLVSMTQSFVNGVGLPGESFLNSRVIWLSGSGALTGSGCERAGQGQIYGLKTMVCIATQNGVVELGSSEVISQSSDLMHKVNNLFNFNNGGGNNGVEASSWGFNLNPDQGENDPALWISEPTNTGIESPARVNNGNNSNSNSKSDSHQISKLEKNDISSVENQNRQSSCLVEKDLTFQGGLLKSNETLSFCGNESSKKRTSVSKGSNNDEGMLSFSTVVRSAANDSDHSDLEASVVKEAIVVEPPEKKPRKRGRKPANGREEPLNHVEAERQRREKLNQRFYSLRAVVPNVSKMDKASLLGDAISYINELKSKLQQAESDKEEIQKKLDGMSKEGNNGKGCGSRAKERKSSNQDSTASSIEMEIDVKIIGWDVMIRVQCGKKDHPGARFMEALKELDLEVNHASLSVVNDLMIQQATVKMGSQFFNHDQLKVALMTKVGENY
myc2_arath MYC2, Q39204, sequence (Q39204 whole entry): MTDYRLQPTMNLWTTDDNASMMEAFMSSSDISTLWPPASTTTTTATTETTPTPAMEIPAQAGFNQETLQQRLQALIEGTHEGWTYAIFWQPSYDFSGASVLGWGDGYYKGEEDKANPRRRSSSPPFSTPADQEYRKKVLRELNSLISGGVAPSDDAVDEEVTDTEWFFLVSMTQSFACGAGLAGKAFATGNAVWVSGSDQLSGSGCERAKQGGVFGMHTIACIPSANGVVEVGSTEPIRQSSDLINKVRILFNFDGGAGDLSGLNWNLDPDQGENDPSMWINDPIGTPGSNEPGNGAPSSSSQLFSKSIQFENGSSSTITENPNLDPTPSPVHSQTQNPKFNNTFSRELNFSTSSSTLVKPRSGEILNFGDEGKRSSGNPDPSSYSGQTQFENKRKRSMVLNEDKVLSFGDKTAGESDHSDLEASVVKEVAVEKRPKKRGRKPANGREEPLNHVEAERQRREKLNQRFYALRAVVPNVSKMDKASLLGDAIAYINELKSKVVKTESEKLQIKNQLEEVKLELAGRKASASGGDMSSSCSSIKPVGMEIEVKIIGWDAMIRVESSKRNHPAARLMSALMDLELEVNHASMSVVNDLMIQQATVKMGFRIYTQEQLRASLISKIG

| effect of a mutation on the interaction (coi1_arath COI1, O04197) | effect of a mutation on the interaction (myc3_arath MYC3, Q9FIP9) | effect of a mutation on the interaction (myc2_arath MYC2, Q39204) | effect of a mutation on the interaction (myc4_arath MYC4, O49687) | Variant |
| --- | --- | --- | --- | --- |
| disrupting interaction strength | – | – | – | MERDFLGLSDKQYLSNNVKHEVNDDAVEERGLSTKAAREWGKSKVFATSSFMPSSDFQEAKAFPGAYQWGSVSAANVFRRCQFGGAFQNATPLLLGGSVPLPTHPSLVPRVASSGSSPQLTIFYGGTISVFNDISPDKAQAIMLCAGNGLKGETGDSKPVREAERMYGKQIHNTAATSSSSATHTDNFSRCRDTPVAATNAMSMIESFNAAPRNMIPSVPQARKASLARFLEKAKERLMSAMPYKKMLLDLSTGESSGMNYSSTSPT [R234A] |
| decreasing interaction strength | – | – | – | MERDFLGLSDKQYLSNNVKHEVNDDAVEERGLSTKAAREWGKSKVFATSSFMPSSDFQEAKAFPGAYQWGSVSAANVFRRCQFGGAFQNATPLLLGGSVPLPTHPSLVPRVASSGSSPQLTIFYGGTISVFNDISPDKAQAIMLCAGNGLKGETGDSKPVREAERMYGKQIHNTAATSSSSATHTDNFSRCRDTPVAATNAMSMIESFNAAPRNMIPSVPQARKASLARFAEKRKERLMSAMPYKKMLLDLSTGESSGMNYSSTSPT [L231A] |
| disrupting interaction strength | – | – | – | MERDFLGLSDKQYLSNNVKHEVNDDAVEERGLSTKAAREWGKSKVFATSSFMPSSDFQEAKAFPGAYQWGSVSAANVFRRCQFGGAFQNATPLLLGGSVPLPTHPSLVPRVASSGSSPQLTIFYGGTISVFNDISPDKAQAIMLCAGNGLKGETGDSKPVREAERMYGKQIHNTAATSSSSATHTDNFSRCRDTPVAATNAMSMIESFNAAPRNMIPSVPQARKASLARALEKRKERLMSAMPYKKMLLDLSTGESSGMNYSSTSPT [F230A] |
| disrupting interaction strength | – | – | – | MERDFLGLSDKQYLSNNVKHEVNDDAVEERGLSTKAAREWGKSKVFATSSFMPSSDFQEAKAFPGAYQWGSVSAANVFRRCQFGGAFQNATPLLLGGSVPLPTHPSLVPRVASSGSSPQLTIFYGGTISVFNDISPDKAQAIMLCAGNGLKGETGDSKPVREAERMYGKQIHNTAATSSSSATHTDNFSRCRDTPVAATNAMSMIESFNAAPRNMIPSVPQAAAASLARFLEKRKERLMSAMPYKKMLLDLSTGESSGMNYSSTSPT [R223A;K224A] |
| disrupting interaction strength | – | – | – | MERDFLGLSDKQYLSNNVKHEVNDDAVEERGLSTKAAREWGKSKVFATSSFMPSSDFQEAKAFPGAYQWGSVSAANVFRRCQFGGAFQNATPLLLGGSVPLPTHPSLVPRVASSGSSPQLTIFYGGTISVFNDISPDKAQAIMLCAGNGLKGETGDSKPVREAERMYGKQIHNTAATSSSSATHTDNFSRCRDTPVAATNAMSMIESFNAAPRNMIPAAAAARKASLARFLEKRKERLMSAMPYKKMLLDLSTGESSGMNYSSTSPT [S218A;V219A;P220A;Q221A] |
| – | disrupting interaction strength | disrupting interaction strength | disrupting interaction strength | MERDFLGLSDKQYLSNNVKHEVNDDAVEERGLSTKAAREWGKSKVFATSSFMPSSDFQEAKAFPGAYQWGSVSAANVFRRCQFGGAFQNATPLLLGGSVPLPTHPSLVPRVASSGSSPQLTIFYGGTISVFNDISPDKAQAIMLCAGNGLKGETGDSKPVREAERMYGKQIHNTAATSSSSATHTDNFSRCRDTPVAATNAMSMIESFNAAPRNMIPSVPQARKASLARFLEKAKERLMSAMPYKKMLLDLSTGESSGMNYSSTSPT [R234A] |
| – | disrupting interaction strength | decreasing interaction strength | decreasing interaction strength | MERDFLGLSDKQYLSNNVKHEVNDDAVEERGLSTKAAREWGKSKVFATSSFMPSSDFQEAKAFPGAYQWGSVSAANVFRRCQFGGAFQNATPLLLGGSVPLPTHPSLVPRVASSGSSPQLTIFYGGTISVFNDISPDKAQAIMLCAGNGLKGETGDSKPVREAERMYGKQIHNTAATSSSSATHTDNFSRCRDTPVAATNAMSMIESFNAAPRNMIPSVPQARKASLARFAEKRKERLMSAMPYKKMLLDLSTGESSGMNYSSTSPT [L231A] |
| – | disrupting interaction strength | disrupting interaction strength | disrupting interaction strength | MERDFLGLSDKQYLSNNVKHEVNDDAVEERGLSTKAAREWGKSKVFATSSFMPSSDFQEAKAFPGAYQWGSVSAANVFRRCQFGGAFQNATPLLLGGSVPLPTHPSLVPRVASSGSSPQLTIFYGGTISVFNDISPDKAQAIMLCAGNGLKGETGDSKPVREAERMYGKQIHNTAATSSSSATHTDNFSRCRDTPVAATNAMSMIESFNAAPRNMIPSVPQARKASLARALEKRKERLMSAMPYKKMLLDLSTGESSGMNYSSTSPT [F230A] |
| – | disrupting interaction strength | disrupting interaction strength | disrupting interaction strength | MERDFLGLSDKQYLSNNVKHEVNDDAVEERGLSTKAAREWGKSKVFATSSFMPSSDFQEAKAFPGAYQWGSVSAANVFRRCQFGGAFQNATPLLLGGSVPLPTHPSLVPRVASSGSSPQLTIFYGGTISVFNDISPDKAQAIMLCAGNGLKGETGDSKPVREAERMYGKQIHNTAATSSSSATHTDNFSRCRDTPVAATNAMSMIESFNAAPRNMIPSVPQARKASAARFLEKRKERLMSAMPYKKMLLDLSTGESSGMNYSSTSPT [L227A] |
